Patent publication US20090111753A1, “Nogo-A Polypeptide Fragments, Variant Nogo Receptor-1 Polypeptides, and Uses Thereof” (Yale University, priority 2004, published 2009)
Changes are numbered by the printed parent chain. In names and notes the source's numbering stands.

B1: 133, 136: human NgR1 mutant, listed residues mutated to alanine (protein)
chain: CPGACVCYNEPKVTTSCPQQGLQAVPVGIPAASQRIFLHGNRISHVPAASFRACRNLTILWLHSNVLARIDAAAFTGLALLEQLDLSDNAQLRSVDPATFHGLGRLATLALDRCGLQELGPGLFRGLAALQYLYLQDNALQALPDDTFRDLGNLTHLFLHGNRISSVPERAFRGLHSLDRLLLHQNRVAHVHPHAFRDLGRLMTLYLFANNLSALPTEALAPLRALQYLRLNDNPWVCDCRARPLWAWLQKFRGSSSEVPCSLPQRLAGRDLKRLAANDLQGCAVATGPYHPIWTGRATDEEPLGLPKCCQPDAADKASVLEPGRPASAGNALKGRVPPGDSPPGNGSGPRHINDSPFGTLPGSAEPPLTAVRPEGSEPPGFPTSGPRRRPGCSRKNRTRSHCRLGQAGSGGGGTGDSEGSGALPSLTCSLTPLGLALVLWTVLGPC
B2: 114, 117: human NgR1 mutant, listed residues mutated to alanine (protein)
chain: B1 chain with D88A, Q91A, A107H, A110H
B3: 196, 199: human NgR1 mutant, listed residues mutated to alanine (protein)
chain: B1 chain with A107H, A110H, R170A, R173A
B4: 143, 144: human NgR1 mutant, listed residues mutated to alanine (protein)
chain: B1 chain with A107H, A110H, Q117A, E118A
B5: D259N: human NgR1 mutant, asparagine substitution to mimic a human polymorphism (protein)
chain: B1 chain with A107H, A110H, D233N
B6: 189, 191, 237: human NgR1 mutant, listed residues mutated to alanine (protein)
chain: B1 chain with A107H, A110H, R163A, S165A, N211A
B7: 202, 205: human NgR1 mutant, listed residues mutated to alanine (protein)
chain: B1 chain with A107H, A110H, H176A, D179A
B8: 36, 38: human NgR1 mutant, listed residues mutated to alanine (protein)
chain: B1 chain with E10A, K12A, A107H, A110H
B9: 202, 205, 250: human NgR1 mutant, listed residues mutated to alanine (protein)
chain: B1 chain with A107H, A110H, H176A, D179A, R224A
B10: 127, 176: human NgR1 mutant, listed residues mutated to alanine (protein)
chain: B1 chain with H101A, A107H, A110H, D150A
B11: 63, 65: human NgR1 mutant, listed residues mutated to alanine (protein)
chain: B1 chain with F37A, H39A, A107H, A110H
B12: 182, 186: human NgR1 mutant, listed residues mutated to alanine (protein)
chain: B1 chain with A107H, A110H, H156A, H160A
B13: 296, 297, 300: human NgR1 mutant, listed residues mutated to alanine (protein)
chain: B1 chain with A107H, A110H, R270A, D271A, R274A
B14: 158, 160: human NgR1 mutant, listed residues mutated to alanine (protein)
chain: B1 chain with A107H, A110H, Y132A, Y134A
B15: 171, 172, 175, 176, 196, 199: human NgR1 mutant, listed residues mutated to alanine (protein)
chain: B1 chain with A107H, A110H, D145A, D146A, R149A, D150A, R170A, R173A
B16: 189, 191, 284: human NgR1 mutant, listed residues mutated to alanine (protein)
chain: B1 chain with A107H, A110H, R163A, S165A, E258A
B17: 277, 279: human NgR1 mutant, listed residues mutated to alanine (protein)
chain: B1 chain with A107H, A110H, K251A, R253A
B18: 292, 296, 297, 300: human NgR1 mutant, listed residues mutated to alanine (protein)
chain: B1 chain with A107H, A110H, R266A, R270A, D271A, R274A
B19: 82, 179: human NgR1 mutant, listed residues mutated to alanine (protein)
chain: B1 chain with N56A, A107H, A110H, N153A
B20: 267, 269: human NgR1 mutant, listed residues mutated to alanine (protein)
chain: B1 chain with A107H, A110H, R241A, R243A
B21: 127, 151: human NgR1 mutant, listed residues mutated to alanine (protein)
chain: B1 chain with H101A, A107H, A110H, R125A
B22: 202, 205, 227: human NgR1 mutant, listed residues mutated to alanine (protein)
chain: B1 chain with A107H, A110H, H176A, D179A, R201A
B23: 171, 172, 175, 176: human NgR1 mutant, listed residues mutated to alanine (protein)
chain: B1 chain with A107H, A110H, D145A, D146A, R149A, D150A
B24: 232, 234: human NgR1 mutant, listed residues mutated to alanine (protein)
chain: B1 chain with A107H, A110H, Y206A, F208A
B25: 189, 191: human NgR1 mutant, listed residues mutated to alanine (protein)
chain: B1 chain with A107H, A110H, R163A, S165A

System: NgR ligands
Experiment: Binding of alanine substituted NgR mutants to NgR ligands, summary categories
Details: AP-Nogo66, AP-B4C, AP-B4C66, AP-Lingo-1, AP-OMgp and AP-MAG; compared to wild type NgR
From the text: To better define how multiple ligands bind to the NgR protein, we examined a series of Ala-substituted NgR for ligand binding activity. NgR mutagenesis was done using the Quick Change Multisite Directed Mutagenesis Kit (Stratagene catalog #200514). Human NgR1 was used as a template. Ala substitutions were generated for each of the charged residues predicted to be solvent accessible at the surface of the ligand binding domain of NgR (Barton, W. A., et al., Embo J. 22:3291-3302 (2003); He, X. L., et al., Neuron 38:177-185 (2003)). We generated mutants in which 1-8 surface residues localized within 5 A of one another were Ala-substituted. Because of the coiling nature of the LRR structure, as residues juxtaposed on the protein surface are commonly separated by approximately 25 residues in the primary structure. In addition to mutations in specific charged surface patches, other mutations were targeted to glycosylation sites and to regions predicted to be involved in ligand binding based on the NgR structure (Barton, W. A., et al., Embo J. 22:3291-3302 (2003); He, X. L., et al., Neuron 38:177-185 (2003)). In addition, a variant corresponding to a human polymorphism was examined (D259N). None of the mutations altered the Leu residues that define the LRR structure itself or the Cys residues critical in the amino and carboxyl terminal capping domains. The vast majority of such Ala surface substitution mutants were expressed as immunoreactive polypeptides with a molecular weight and an expression level indistinguishable from wild type NgR (FIG. 4C and data not shown).
This collection of 74 individual NgR mutants was interrogated for AP-Nogo-66, AP-Amino-Nogo-B4C, AP-MAG, AP-OMgp, and AP-Lingo-1 binding. AP-Nogo66, AP-MAG, AP-OMGP and AP-Lingo-1 constructs are described elsewhere (Fournier, A. E., et al., Nature 409:341-346 (2001); Liu, B. P., et al., Science 297:1190-1193 (2002); Mi, S., et al., Nat. Neurosci. 7:221-228 (2004); Wang, K. C., et al., Nature 417:941-944 (2002b)). The properties of the NgR mutants fell into one of three major categories (Table II and FIG. 5). A number of Ala substituted NgR polypeptides bound all of the ligands at wild type levels. […] In addition, a significant extent of the concave surface is dispensable for ligand binding.
Alanine substituted NgR mutants were tested for their binding to AP-Nogo66, AP-B4C, AP-B4C66, AP-Lingo-1, AP-OMgp and AP-MAG and they fall into three categories: (1) Mutants that lose binding to all NgR ligands. (2) Mutants that still maintain binding to all NgR ligands. […] The D259N mutant is an asparagine substitution to mimic a human polymorphism.

| Molecule | ligand binding category of NgR mutant (Table II) |
| --- | --- |
| B1 | No binding |
| B2 | Binding to all ligands |
| B3 | Binding to all ligands |
| B4 | Binding to all ligands |
| B5 | Binding to all ligands |
| B6 | Binding to all ligands |
| B7 | Binding to all ligands |
| B8 | Binding to all ligands |
| B9 | Binding to all ligands |
| B10 | Binding to all ligands |
| B11 | Binding to all ligands |
| B12 | No binding |
| B13 | Binding to all ligands |
| B14 | No binding |
| B15 | Binding to all ligands |
| B16 | Binding to all ligands |
| B17 | Binding to all ligands |
| B18 | Binding to all ligands |
| B19 | No binding |
| B20 | Binding to all ligands |
| B21 | Binding to all ligands |
| B22 | Binding to all ligands |
| B23 | Binding to all ligands |
| B24 | No binding |
| B25 | Binding to all ligands |
